Measured values from patent US20080274967.
Positions count from the first letter of the chain named.

Key:
[1] = biological target: T1, PEDF EEE variant (S24,114, 227E)
T1 chain: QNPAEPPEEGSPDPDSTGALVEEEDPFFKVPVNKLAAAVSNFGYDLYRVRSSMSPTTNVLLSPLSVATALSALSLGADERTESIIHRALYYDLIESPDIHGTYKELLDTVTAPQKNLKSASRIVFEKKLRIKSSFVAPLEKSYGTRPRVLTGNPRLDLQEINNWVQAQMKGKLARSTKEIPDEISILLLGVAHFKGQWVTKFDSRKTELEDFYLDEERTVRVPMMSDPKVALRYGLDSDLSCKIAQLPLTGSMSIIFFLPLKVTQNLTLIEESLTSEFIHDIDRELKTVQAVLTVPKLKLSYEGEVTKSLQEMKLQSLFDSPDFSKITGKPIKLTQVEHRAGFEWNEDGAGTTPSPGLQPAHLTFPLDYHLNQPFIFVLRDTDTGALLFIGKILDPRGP

[2] = biological target: T2, PEDF AAA variant (S24,114, 227A)
T2 chain: T1 chain with E5A, E95A, E208A

[3] = biological target: T3, Recombinant human pigment epithelium derived factor (rPEDF)
T3 chain: T1 chain with E5S, E95S, E208S

[4] = biological target: T4, PEDF EEA variant (S24,114E, 227A)
T4 chain: T1 chain with E208A

PEDF S227E variant = biological target: T5, PEDF S227E variant
T5 chain: T1 chain with E5S, E95S

PEDF S227A variant = biological target: T6, PEDF S227A variant
T6 chain: T1 chain with E5S, E95S, E208A

[5] = biological target: T7, PEDF purified from human plasma (plPEDF)
T7 chain: T1 chain with E5S, E95S, E208S

[6] = biological target: T8, PEDF AAE variant (S24,114A, 227E)
T8 chain: T1 chain with E5A, E95A

B1: Recombinant human CK2 (casein kinase CK2) (protein)
chain: MSGPVPSRARVYTDVNTHRPREYWDYESHVVEWGNQDDYQLVRKLGRGKYSEVFEAINITNNEKVVVKILKPVKKKKIKREIKILENLRGGPNIITLADIVKDPVSRTPALVFEHVNNTDFKQLYQTLTDYDIRFYMYEILKALDYCHSMGIMHRDVKPHNVMIDHEHRKLRLIDWGLAEFYHPGQEYNVRVASRYFKGPELLVDYQMYDYSLDMWSLGCMLASMIFRKEPFFHGHDNYDQLVRIAKVLGTEDLYDYIDKYNIELDPRFNDILGRHSRKRWERFVHSENQHLVSPEALDFLDKLLRYDHQSRLTAREAMEHPYFYTVVKDQARMGSSSMPGGSTPVSSANMMSGISSVPTPSPLGPLAGSPVIAAANPLGMPVPAAAGAQQ
in vitro phosphorylation by CK2 [1]: the triple mutants EEE and EEA were readily phosphorylated by CK2
in vitro phosphorylation by CK2 [2]: The AAE and the AAA variants almost completely abolished CK2 phosphorylation
in vitro phosphorylation by CK2 ([γ32P]-ATP, SDS-PAGE, autoradiography) [3]: the phosphorylation of the plPEDF by CK2 was significantly lower than CK2 phosphorylation of the rPEDF
in vitro phosphorylation by CK2 [4]: the triple mutants EEE and EEA were readily phosphorylated by CK2
in vitro phosphorylation by CK2 ([γ32P]-ATP, SDS-PAGE, autoradiography) (PEDF S227E variant): both readily phosphorylated by CK2
in vitro phosphorylation by CK2 ([γ32P]-ATP, SDS-PAGE, autoradiography) (PEDF S227A variant): both readily phosphorylated by CK2
in vitro phosphorylation by CK2 ([γ32P]-ATP, SDS-PAGE, autoradiography) [5]: the phosphorylation of the plPEDF by CK2 was significantly lower than CK2 phosphorylation of the rPEDF
in vitro phosphorylation by CK2 [6]: The AAE and the AAA variants almost completely abolished CK2 phosphorylation
